Source: patent publication US20240400708A1

Target: feline FcRn complex (FcRn-α subunit and β-microglobulin), biotin labeled (feline)
Experiment: SPR, pH 6

| Kd [nM] | Binder |
| --- | --- |
| 119 | feline IgG1a S428A (antibody, part only; not given: Variable domains, not shown: another chain or arm of the molecule) constant: ASTTAPSVFPLAPSCGTTSGATVALACLVLGYFPEPVTVSWNSGALTSGVHTFPAVLQASGLYSLSSMVTVPSSRWLSDTFTCNVAHPPSNTKVDKTVRKTDHPPGPKPCDCPKCPPPEMLGGPSIFIFPPKPKDTLSISRTPEVTCLVVDLGPDDSDVQITWFVDNTQVYTAKTSPREEQFNSTYRVVSVLPILHQDWLKGKEFKCKVNSKSLPSPIERTISKAKGQPHEPQVYVLPPAQEELSRNKVSVTCLIKSFHPPDIAVEWEITGQPEPENNYRTTPPQLDSDGTYFVYSKLSVDRSHWQRGNTYTCSVAHEALHSHHTQKSLTQSPGK |
| 68.6 | feline IgG1a S428R (antibody, part only; not given: Variable domains, not shown: another chain or arm of the molecule; small tags and cut ends) constant: ASTTAPSVFPLAPSCGTTSGATVALACLVLGYFPEPVTVSWNSGALTSGVHTFPAVLQASGLYSLSSMVTVPSSRWLSDTFTCNVAHPPSNTKVDKTVRKTDHPPGPKPCDCPKCPPPEMLGGPSIFIFPPKPKDTLSISRTPEVTCLVVDLGPDDSDVQITWFVDNTQVYTAKTSPREEQFNSTYRVVSVLPILHQDWLKGKEFKCKVNSKSLPSPIERTISKAKGQPHEPQVYVLPPAQEELSRNKVSVTCLIKSFHPPDIAVEWEITGQPEPENNYRTTPPQLDSDGTYFVYSKLSVDRSHWQRGNTYTCSVRHEALHSHHTQKSLTQSPGK |
| 83.9 | feline IgG1a S428F (antibody, part only; not given: Variable domains, not shown: another chain or arm of the molecule) constant: ASTTAPSVFPLAPSCGTTSGATVALACLVLGYFPEPVTVSWNSGALTSGVHTFPAVLQASGLYSLSSMVTVPSSRWLSDTFTCNVAHPPSNTKVDKTVRKTDHPPGPKPCDCPKCPPPEMLGGPSIFIFPPKPKDTLSISRTPEVTCLVVDLGPDDSDVQITWFVDNTQVYTAKTSPREEQFNSTYRVVSVLPILHQDWLKGKEFKCKVNSKSLPSPIERTISKAKGQPHEPQVYVLPPAQEELSRNKVSVTCLIKSFHPPDIAVEWEITGQPEPENNYRTTPPQLDSDGTYFVYSKLSVDRSHWQRGNTYTCSVFHEALHSHHTQKSLTQSPGK |
| 40.8 | feline IgG1a S428I (antibody, part only; not given: Variable domains, not shown: another chain or arm of the molecule) constant: ASTTAPSVFPLAPSCGTTSGATVALACLVLGYFPEPVTVSWNSGALTSGVHTFPAVLQASGLYSLSSMVTVPSSRWLSDTFTCNVAHPPSNTKVDKTVRKTDHPPGPKPCDCPKCPPPEMLGGPSIFIFPPKPKDTLSISRTPEVTCLVVDLGPDDSDVQITWFVDNTQVYTAKTSPREEQFNSTYRVVSVLPILHQDWLKGKEFKCKVNSKSLPSPIERTISKAKGQPHEPQVYVLPPAQEELSRNKVSVTCLIKSFHPPDIAVEWEITGQPEPENNYRTTPPQLDSDGTYFVYSKLSVDRSHWQRGNTYTCSVIHEALHSHHTQKSLTQSPGK |
| 61.4 | feline IgG1a S428C (antibody, part only; not given: Variable domains, not shown: another chain or arm of the molecule) constant: ASTTAPSVFPLAPSCGTTSGATVALACLVLGYFPEPVTVSWNSGALTSGVHTFPAVLQASGLYSLSSMVTVPSSRWLSDTFTCNVAHPPSNTKVDKTVRKTDHPPGPKPCDCPKCPPPEMLGGPSIFIFPPKPKDTLSISRTPEVTCLVVDLGPDDSDVQITWFVDNTQVYTAKTSPREEQFNSTYRVVSVLPILHQDWLKGKEFKCKVNSKSLPSPIERTISKAKGQPHEPQVYVLPPAQEELSRNKVSVTCLIKSFHPPDIAVEWEITGQPEPENNYRTTPPQLDSDGTYFVYSKLSVDRSHWQRGNTYTCSVCHEALHSHHTQKSLTQSPGK |
| 70.2 | feline IgG1a S428K (antibody, part only; not given: Variable domains, not shown: another chain or arm of the molecule) constant: ASTTAPSVFPLAPSCGTTSGATVALACLVLGYFPEPVTVSWNSGALTSGVHTFPAVLQASGLYSLSSMVTVPSSRWLSDTFTCNVAHPPSNTKVDKTVRKTDHPPGPKPCDCPKCPPPEMLGGPSIFIFPPKPKDTLSISRTPEVTCLVVDLGPDDSDVQITWFVDNTQVYTAKTSPREEQFNSTYRVVSVLPILHQDWLKGKEFKCKVNSKSLPSPIERTISKAKGQPHEPQVYVLPPAQEELSRNKVSVTCLIKSFHPPDIAVEWEITGQPEPENNYRTTPPQLDSDGTYFVYSKLSVDRSHWQRGNTYTCSVKHEALHSHHTQKSLTQSPGK |
| 46.3 | feline IgG1a S428G (antibody, part only; not given: Variable domains, not shown: another chain or arm of the molecule) constant: ASTTAPSVFPLAPSCGTTSGATVALACLVLGYFPEPVTVSWNSGALTSGVHTFPAVLQASGLYSLSSMVTVPSSRWLSDTFTCNVAHPPSNTKVDKTVRKTDHPPGPKPCDCPKCPPPEMLGGPSIFIFPPKPKDTLSISRTPEVTCLVVDLGPDDSDVQITWFVDNTQVYTAKTSPREEQFNSTYRVVSVLPILHQDWLKGKEFKCKVNSKSLPSPIERTISKAKGQPHEPQVYVLPPAQEELSRNKVSVTCLIKSFHPPDIAVEWEITGQPEPENNYRTTPPQLDSDGTYFVYSKLSVDRSHWQRGNTYTCSVGHEALHSHHTQKSLTQSPGK |
| 184 | feline IgG1a S428E (antibody, part only; not given: Variable domains, not shown: another chain or arm of the molecule) constant: ASTTAPSVFPLAPSCGTTSGATVALACLVLGYFPEPVTVSWNSGALTSGVHTFPAVLQASGLYSLSSMVTVPSSRWLSDTFTCNVAHPPSNTKVDKTVRKTDHPPGPKPCDCPKCPPPEMLGGPSIFIFPPKPKDTLSISRTPEVTCLVVDLGPDDSDVQITWFVDNTQVYTAKTSPREEQFNSTYRVVSVLPILHQDWLKGKEFKCKVNSKSLPSPIERTISKAKGQPHEPQVYVLPPAQEELSRNKVSVTCLIKSFHPPDIAVEWEITGQPEPENNYRTTPPQLDSDGTYFVYSKLSVDRSHWQRGNTYTCSVEHEALHSHHTQKSLTQSPGK |
| 27.3 | feline IgG1a S428T (antibody, part only; not given: Variable domains, not shown: another chain or arm of the molecule; small tags and cut ends) constant: ASTTAPSVFPLAPSCGTTSGATVALACLVLGYFPEPVTVSWNSGALTSGVHTFPAVLQASGLYSLSSMVTVPSSRWLSDTFTCNVAHPPSNTKVDKTVRKTDHPPGPKPCDCPKCPPPEMLGGPSIFIFPPKPKDTLSISRTPEVTCLVVDLGPDDSDVQITWFVDNTQVYTAKTSPREEQFNSTYRVVSVLPILHQDWLKGKEFKCKVNSKSLPSPIERTISKAKGQPHEPQVYVLPPAQEELSRNKVSVTCLIKSFHPPDIAVEWEITGQPEPENNYRTTPPQLDSDGTYFVYSKLSVDRSHWQRGNTYTCSVTHEALHSHHTQKSLTQSPGK |
| 362 | feline IgG1a S428D (antibody, part only; not given: Variable domains, not shown: another chain or arm of the molecule) constant: ASTTAPSVFPLAPSCGTTSGATVALACLVLGYFPEPVTVSWNSGALTSGVHTFPAVLQASGLYSLSSMVTVPSSRWLSDTFTCNVAHPPSNTKVDKTVRKTDHPPGPKPCDCPKCPPPEMLGGPSIFIFPPKPKDTLSISRTPEVTCLVVDLGPDDSDVQITWFVDNTQVYTAKTSPREEQFNSTYRVVSVLPILHQDWLKGKEFKCKVNSKSLPSPIERTISKAKGQPHEPQVYVLPPAQEELSRNKVSVTCLIKSFHPPDIAVEWEITGQPEPENNYRTTPPQLDSDGTYFVYSKLSVDRSHWQRGNTYTCSVDHEALHSHHTQKSLTQSPGK |
| 42.9 | feline IgG1a S428N (antibody, part only; not given: Variable domains, not shown: another chain or arm of the molecule; small tags and cut ends) constant: ASTTAPSVFPLAPSCGTTSGATVALACLVLGYFPEPVTVSWNSGALTSGVHTFPAVLQASGLYSLSSMVTVPSSRWLSDTFTCNVAHPPSNTKVDKTVRKTDHPPGPKPCDCPKCPPPEMLGGPSIFIFPPKPKDTLSISRTPEVTCLVVDLGPDDSDVQITWFVDNTQVYTAKTSPREEQFNSTYRVVSVLPILHQDWLKGKEFKCKVNSKSLPSPIERTISKAKGQPHEPQVYVLPPAQEELSRNKVSVTCLIKSFHPPDIAVEWEITGQPEPENNYRTTPPQLDSDGTYFVYSKLSVDRSHWQRGNTYTCSVNHEALHSHHTQKSLTQSPGK |
| 8.67 | feline IgG1a S434L (antibody, part only; not given: Variable domains, not shown: another chain or arm of the molecule) constant: ASTTAPSVFPLAPSCGTTSGATVALACLVLGYFPEPVTVSWNSGALTSGVHTFPAVLQASGLYSLSSMVTVPSSRWLSDTFTCNVAHPPSNTKVDKTVRKTDHPPGPKPCDCPKCPPPEMLGGPSIFIFPPKPKDTLSISRTPEVTCLVVDLGPDDSDVQITWFVDNTQVYTAKTSPREEQFNSTYRVVSVLPILHQDWLKGKEFKCKVNSKSLPSPIERTISKAKGQPHEPQVYVLPPAQEELSRNKVSVTCLIKSFHPPDIAVEWEITGQPEPENNYRTTPPQLDSDGTYFVYSKLSVDRSHWQRGNTYTCSVSHEALHLHHTQKSLTQSPGK |
| 41.6 | feline IgG1a S428H (antibody, part only; not given: Variable domains, not shown: another chain or arm of the molecule) constant: ASTTAPSVFPLAPSCGTTSGATVALACLVLGYFPEPVTVSWNSGALTSGVHTFPAVLQASGLYSLSSMVTVPSSRWLSDTFTCNVAHPPSNTKVDKTVRKTDHPPGPKPCDCPKCPPPEMLGGPSIFIFPPKPKDTLSISRTPEVTCLVVDLGPDDSDVQITWFVDNTQVYTAKTSPREEQFNSTYRVVSVLPILHQDWLKGKEFKCKVNSKSLPSPIERTISKAKGQPHEPQVYVLPPAQEELSRNKVSVTCLIKSFHPPDIAVEWEITGQPEPENNYRTTPPQLDSDGTYFVYSKLSVDRSHWQRGNTYTCSVHHEALHSHHTQKSLTQSPGK |
| 6.76 | feline IgG1a S434K (antibody, part only; not given: variable domains and light chain, not shown: another chain or arm of the molecule) constant: ASTTAPSVFPLAPSCGTTSGATVALACLVLGYFPEPVTVSWNSGALTSGVHTFPAVLQASGLYSLSSMVTVPSSRWLSDTFTCNVAHPPSNTKVDKTVRKTDHPPGPKPCDCPKCPPPEMLGGPSIFIFPPKPKDTLSISRTPEVTCLVVDLGPDDSDVQITWFVDNTQVYTAKTSPREEQFNSTYRVVSVLPILHQDWLKGKEFKCKVNSKSLPSPIERTISKAKGQPHEPQVYVLPPAQEELSRNKVSVTCLIKSFHPPDIAVEWEITGQPEPENNYRTTPPQLDSDGTYFVYSKLSVDRSHWQRGNTYTCSVSHEALHKHHTQKSLTQSPGK |
| 18 | feline IgG1a S428P (antibody, part only; not given: Variable domains, not shown: another chain or arm of the molecule; small tags and cut ends) constant: ASTTAPSVFPLAPSCGTTSGATVALACLVLGYFPEPVTVSWNSGALTSGVHTFPAVLQASGLYSLSSMVTVPSSRWLSDTFTCNVAHPPSNTKVDKTVRKTDHPPGPKPCDCPKCPPPEMLGGPSIFIFPPKPKDTLSISRTPEVTCLVVDLGPDDSDVQITWFVDNTQVYTAKTSPREEQFNSTYRVVSVLPILHQDWLKGKEFKCKVNSKSLPSPIERTISKAKGQPHEPQVYVLPPAQEELSRNKVSVTCLIKSFHPPDIAVEWEITGQPEPENNYRTTPPQLDSDGTYFVYSKLSVDRSHWQRGNTYTCSVPHEALHSHHTQKSLTQSPGK |
| 38.3 | feline IgG1a S428Q (antibody, part only; not given: Variable domains, not shown: another chain or arm of the molecule; small tags and cut ends) constant: ASTTAPSVFPLAPSCGTTSGATVALACLVLGYFPEPVTVSWNSGALTSGVHTFPAVLQASGLYSLSSMVTVPSSRWLSDTFTCNVAHPPSNTKVDKTVRKTDHPPGPKPCDCPKCPPPEMLGGPSIFIFPPKPKDTLSISRTPEVTCLVVDLGPDDSDVQITWFVDNTQVYTAKTSPREEQFNSTYRVVSVLPILHQDWLKGKEFKCKVNSKSLPSPIERTISKAKGQPHEPQVYVLPPAQEELSRNKVSVTCLIKSFHPPDIAVEWEITGQPEPENNYRTTPPQLDSDGTYFVYSKLSVDRSHWQRGNTYTCSVQHEALHSHHTQKSLTQSPGK |
